These results are taken from patent US7070969 (UNIVERSITY OF QUEENSLAND, dated 2006).

Assay [1] deals with T1, Human plasmin (human, UniProt P00747 97-810).
T1 construct: mature
In words: comparison of Table 3 Ki values; reference aprotinin (Willmott et al., 1995).

Assay [2] has as its target T1, Human plasmin. Kind of assay: progress curves of S-2251 hydrolysis, 2 nM plasmin, n = 6, global fit to Eq. 1-3.
In assay [3] the target is T1, Human plasmin. In words: progress curves of S-2251 hydrolysis, 18 nM plasmin, n = 6, global fit to Eq. 1-3.
For assay [4], the target named is T1, Human plasmin. Kind of assay: plasmin inhibition kinetics (kinetic profile).

T1 sequence (P00747 97-810): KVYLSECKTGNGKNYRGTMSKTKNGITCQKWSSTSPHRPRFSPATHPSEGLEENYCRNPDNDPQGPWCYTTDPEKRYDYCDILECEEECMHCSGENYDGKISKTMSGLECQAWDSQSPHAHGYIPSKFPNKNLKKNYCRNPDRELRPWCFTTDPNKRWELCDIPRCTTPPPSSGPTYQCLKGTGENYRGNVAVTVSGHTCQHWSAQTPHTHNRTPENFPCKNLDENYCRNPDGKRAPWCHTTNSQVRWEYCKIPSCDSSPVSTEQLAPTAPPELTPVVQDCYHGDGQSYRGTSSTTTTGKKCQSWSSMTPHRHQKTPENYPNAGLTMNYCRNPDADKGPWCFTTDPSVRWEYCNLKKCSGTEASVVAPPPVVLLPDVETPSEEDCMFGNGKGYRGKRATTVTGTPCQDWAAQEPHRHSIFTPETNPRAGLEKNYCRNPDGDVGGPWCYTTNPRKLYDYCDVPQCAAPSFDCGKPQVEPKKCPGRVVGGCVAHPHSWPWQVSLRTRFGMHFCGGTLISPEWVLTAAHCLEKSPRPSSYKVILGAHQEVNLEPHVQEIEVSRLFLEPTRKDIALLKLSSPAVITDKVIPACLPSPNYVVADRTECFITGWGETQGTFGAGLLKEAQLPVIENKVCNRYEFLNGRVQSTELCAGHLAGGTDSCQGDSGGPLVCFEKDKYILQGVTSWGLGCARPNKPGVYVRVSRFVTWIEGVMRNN

B1: Textilinin 1 (other)
chain: KDRPDFCELPADTGPCRVRFPSFYYNPDEKKCLEFIYGGCEGNANNFITKEECESTCAA
notes: also called Txln 1
Regarding B1, in the assay with Human plasmin [1], the “fold difference of Ki against aprotinin” value was around 100 fold. Further, the Ki was found to be 3.5 nM with Human plasmin [2] and 2.6 nM with Human plasmin [3].

B2: Textilinin 2 (other)
chain: KDRPELCELPPDTGPCRVRFPSFYYNPDEQKCLEFIYGGCEGNANNFITKEECESTCAA
notes: also called Txln 2
For the molecule B2, the results for the inhibition constant Ki with Human plasmin [4], with Human plasmin [2] and with Human plasmin [3] were 2 nM, 2.2 nM and 2.8 nM, respectively. Moreover, the “fold difference of Ki against aprotinin” value with Human plasmin [1] is around 100 fold.

By Ki is commonly meant the dissociation constant of the complex between target and ligand, obtained from inhibition or displacement. Lower therefore signals a stronger hold on the target.
